Key:
[1] = target: T1, His-tagged cynomolgus FAP ECD (cynomolgus, UniProt Q12884 27-760 (human entry)); assay: SPR ProteOn XPR36, 25 C; His-tagged FAP captured by anti-penta-His IgG, construct as analyte
T1 construct: also called cyno FAP
Experimental: (§1) To determine the affinities to FAP, the target protein was captured via its H6-tag by a covalently immobilized anti-H6 antibody (FIG. 9A). Briefly, anti-penta His IgG (Qiagen #34660, mouse monoclonal antibody) was immobilized at high levels (up to ˜5.000 RU) at 30 μ/min onto separate vertical channels of a GLM chip by simultaneously activating all channels for 5 min with a freshly prepared mixture of 1-ethyl-3-(3-dimethylaminopropyl)-carboiimide (EDC) and N-hydroxysuccinimide (sNHS), subsequently injecting 15 μg/ml anti-penta His IgG in 10 mM sodium acetate buffer pH 4.5 for 180 sec. Channels were blocked using a 5-min injection of ethanolamine. H6-tagged FAP from different species (see SEQ ID NOs 81, 83 and 85) was captured from a 5 μg/ml dilution in running buffer along the vertical channels for 60 s at 30 μl/min to achieve ligand densities between ˜250 and 600 RU. In a one-shot kinetic assay set-up (OSK), antibody-IL-10 fusion constructs were injected as analytes along the horizontal channels in a five-fold dilution series ranging from 50 to 0.08 nM at 100 μl/min. Association phase was recorded for 180 s, dissociation phase for 600 s. […] Running buffer (PBST) was injected along the sixth channel to provide an “in-line” blank for referencing. Association rates (kₒₙ) and dissociation rates (koff) were calculated using a simple 1:1 Langmuir binding model (ProteOn Manager software version 2.1) by simultaneously fitting the association and dissociation sensorgrams. The equilibrium dissociation constant (KD) was calculated as the ratio koff/kₒₙ.

His-tagged mouse FAP ECD = target: T2, His-tagged mouse FAP ECD (mouse, UniProt P97321 27-761); assay: as above
T2 construct: also called mu FAP; murine FAP
Experimental: as §1

His-tagged human FAP ECD = target: T3, His-tagged human FAP ECD (human, UniProt Q12884 27-760); assay: as above
T3 construct: also called hu FAP
Experimental: as §1

[2] = target: T4, human IL-10R1 ECD fused to a human Fc region, biotinylated (human, biotinylated (site not stated)); assay: SPR ProteOn XPR36, 25 C; biotinylated hu IL-10R1-Fc on neutravidin chip, construct as analyte
T4 construct: Captured on a neutravidin chip; also called hu IL-10R1; IL-10 receptor 1
Experimental: To measure the interaction between the antibody-IL-10 fusion constructs and the human IL-10R1, an NLC chip was used for immobilization of the biotinylated receptor (FIG. 9B). Between 400 and 1600 RU of human IL-10R1 (see SEQ ID NO: 87) were captured on the neutravidin-derivatized chip matrix along vertical channels at a concentration of 10 μg/ml and a flow rate of […] for varying contact times. Binding to biotinylated human IL10R1 was measured at six different analyte concentrations (50, 10, 2, 0.4, 0.08, 0 nM) by injections in horizontal orientation at 100 μl/min, recording the association rate for 180 s, the dissociation rate for 600 s. Running buffer (PBST) was injected along the sixth channel to provide an “in-line” blank for referencing. Association rates (kₒₙ) and dissociation rates (koff) were calculated using a simple 1:1 Langmuir binding model (ProteOn Manager software version 2.1) by simultaneously fitting the association and dissociation sensorgrams. The equilibrium dissociation constant (KD) was calculated as the ratio koff/kₒₙ. As human IL-10R1 could not be regenerated without a loss of activity, the two subsequent steps of ligand capture and analyte injection were performed channel per channel using a freshly immobilized sensorchip surface for every interaction.

Kd [1] | koff [1] | kon [1] | Kd (His-tagged mouse FAP ECD) | koff (His-tagged mouse FAP ECD) | kon (His-tagged mouse FAP ECD) | Kd (His-tagged human FAP ECD) | koff (His-tagged human FAP ECD) | kon (His-tagged human FAP ECD) | Kd [2] | koff [2] | kon [2] | Binder
0.0175 nM | 7.27e-05 s⁻¹ | 4.16e+06 M⁻¹ s⁻¹ | 0.0234 nM | 6.27e-05 s⁻¹ | 2.68e+06 M⁻¹ s⁻¹ | 0.00105 nM | 5.72e-06 s⁻¹ | 5.47e+06 M⁻¹ s⁻¹ | 0.0212 nM | 4.57e-05 s⁻¹ | 2.15e+06 M⁻¹ s⁻¹ | 4B9 Fab-IL-10 (other, also called Fab-IL-10 (clone 4B9)) heavy: EVQLLESGGGLVQPGGSLRLSCAASGFTFSSYAMSWVRQAPGKGLEWVSAIIGSGASTYYADSVKGRFTISRDNSKNTLYLQMNSLRAEDTAVYYCAKGWFGGFNYWGQGTLVTVSSASTKGPSVFPLAPSSKSTSGGTAALGCLVKDYFPEPVTVSWNSGALTSGVHTFPAVLQSSGLYSLSSVVTVPSSSLGTQTYICNVNHKPSNTKVDKKVEPKSCDGGGGSGGGGSGGGGSSPGQGTQSENSCTHFPGNLPNMLRDLRDAFSRVKTFFQMKDQLDNLLLKESLLEDFKGYLGCQALSEMIQFYLEEVMPQAENQDPDIKAHVNSLGENLKTLRLRLRRCHRFLPCENKSKAVEQVKNAFNKLQEKGIYKAMSEFDIFINYIEAYMTMKIRN light: EIVLTQSPGTLSLSPGERATLSCRASQSVTSSYLAWYQQKPGQAPRLLINVGSRRATGIPDRFSGSGSGTDFTLTISRLEPEDFAVYYCQQGIMLPPTFGQGTKVEIKRTVAAPSVFIFPPSDEQLKSGTASVVCLLNNFYPREAKVQWKVDNALQSGNSQESVTEQDSKDSTYSLSSTLTLSKADYEKHKVYACEVTHQGLSSPVTKSFNRGEC
0.00679 nM | 3.35e-05 s⁻¹ | 4.93e+06 M⁻¹ s⁻¹ | 0.0303 nM | 7.4e-05 s⁻¹ | 2.45e+06 M⁻¹ s⁻¹ | 0.00656 nM | 3.11e-05 s⁻¹ | 4.74e+06 M⁻¹ s⁻¹ | 0.0553 nM | 9.58e-05 s⁻¹ | 1.73e+06 M⁻¹ s⁻¹ | 4B9 Fab-scIL-10-Fab (other, also called Fab-scIL-10-Fab (clone 4B9)) heavy: EVQLLESGGGLVQPGGSLRLSCAASGFTFSSYAMSWVRQAPGKGLEWVSAIIGSGASTYYADSVKGRFTISRDNSKNTLYLQMNSLRAEDTAVYYCAKGWFGGFNYWGQGTLVTVSSASTKGPSVFPLAPSSKSTSGGTAALGCLVKDYFPEPVTVSWNSGALTSGVHTFPAVLQSSGLYSLSSVVTVPSSSLGTQTYICNVNHKPSNTKVDKKVEPKSCDGGGGSGGGGSGGGGSSPGQGTQSENSCTHFPGNLPNMLRDLRDAFSRVKTFFQMKDQLDNLLLKESLLEDFKGYLGCQALSEMIQFYLEEVMPQAENQDPDIKAHVNSLGENLKTLRLRLRRCHRFLPCENKSKAVEQVKNAFNKLQEKGIYKAMSEFDIFINYIEAYMTMKIRNGGGGSGGGGSGGGGSGGGGSSPGQGTQSENSCTHFPGNLPNMLRDLRDAFSRVKTFFQMKDQLDNLLLKESLLEDFKGYLGCQALSEMIQFYLEEVMPQAENQDPDIKAHVNSLGENLKTLRLRLRRCHRFLPCENKSKAVEQVKNAFNKLQEKGIYKAMSEFDIFINYIEAYMTMKIRNGGGGSGGGGSGGGGSEVQLLESGGGLVQPGGSLRLSCAASGFTFSSYAMSWVRQAPGKGLEWVSAIIGSGASTYYADSVKGRFTISRDNSKNTLYLQMNSLRAEDTAVYYCAKGWFGGFNYWGQGTLVTVSSASTKGPSVFPLAPSSKSTSGGTAALGCLVKDYFPEPVTVSWNSGALTSGVHTFPAVLQSSGLYSLSSVVTVPSSSLGTQTYICNVNHKPSNTKVDKKVEPKSCD light: EIVLTQSPGTLSLSPGERATLSCRASQSVTSSYLAWYQQKPGQAPRLLINVGSRRATGIPDRFSGSGSGTDFTLTISRLEPEDFAVYYCQQGIMLPPTFGQGTKVEIKRTVAAPSVFIFPPSDEQLKSGTASVVCLLNNFYPREAKVQWKVDNALQSGNSQESVTEQDSKDSTYSLSSTLTLSKADYEKHKVYACEVTHQGLSSPVTKSFNRGEC

Source: patent US20140044674A1 (Hoffmann-La Roche, published 2014)
